Reference: paper PMC3142331 (2011)

Molecular target: T1, RNA polymerase II CTD tetraheptad CTD (UniProt P24928, CTD Ser5 phosphorylation)
T1 chain: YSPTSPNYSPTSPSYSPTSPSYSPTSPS
Assay: guanylyltransferase stimulation assay

- Kd: 1500 nM
B1: Mce (protein)
chain: not shown
